Test results from US6991908 (Takeda / Millennium, dated 2006).
Positions of bridges follow the written chain, without caps; N, C: chain ends. No end group written: not given here.

B1: melanin concentrating hormone (MCH), rat MCH (ligand)
peptide: DFDMLRCMLGRVYRPCWQV
modifications: disulfide 7-16
notes: also called synthetic MCH; synthetic rat MCH

Tests used:
[1] = target: rat SLC-1 (rat, UniProt P97639 1-353); assay: cell-based or functional assay
[2] = target: T1, human SLC-1 (human); assay: radioligand competition against [125I]-labeled MCH(4-19) on human SLC-1-expression CHO cell membrane fraction (2.5 µg/ml), filtration, γ-counter
T1 construct: also called hSLC-1; human SLC-1(S)

| Binder | agonist activity, GTPγS binding assay (fold decrease against MCH) [1] [times] | IC50 [2] [nM] |
| --- | --- | --- |
| RCMLGRVYRPCWQV (disulfide 2-11) [Des-[Asp1, Phe2, Asp3, Met4, Leu5]-MCH (MCH(6-19))] | ~10 |  |
| CMLGRVYRPCWQV (disulfide 1-10) [Des-[Asp1, Phe2, Asp3, Met4, Leu5, Arg6]-MCH (MCH(7-19))] | ~200 |  |
| B1 |  | 0.2 |
